Data reported in US20220363763A1 (ABL BIO, published 2022).
Read-outs that look alike come from different tables or passages of the source. Each block holds one binder with its values, some of them ahead of it.

Assays:
[1] = molecular target: T1, human PD-L1 expressed on mammalian cells (human, UniProt Q9NZQ7 19-290); assay: flow cytometry (MFI) on PDL1-CHOK1 cells; EC50 table has no unit, x axis Antibodies(nM)
T1 construct: whole, on cells; also called PDL1-CHOK1 cells; PDL1-Raji cells
Method: (§1) To evaluate the antigen binding property, the humanized antibodies were analyzed for its binding to mammalian expressed PD-L1 by FACS. Briefly, PDL1-CHOK1 cells were firstly incubated with 5-fold serious diluted humanized antibodies starting at 2 μg/ml at RT for 1 hour. After wash by FACS buffer (PBS with 2% FBS), the alexa 488-anti-human IgG antibody was added to each well and incubated at RT for 1 hour. The MFI of Alexa 488 was evaluated by FACSAriaIII.

[2] = molecular target: T1, human PD-L1 expressed on mammalian cells; assay: as above; remark: listed apart in the source
Method: as §1

human PD-L1-Fc protein [3] = molecular target: T2, human PD-L1-Fc protein (human, UniProt Q9NZQ7 19-239); assay: ELISA on coated human PD-L1-Fc; EC50 table has no unit, x axis Ab(nM)
T2 construct: Coated on ELISA plates; also called huPD-L1; not shown: Fc part
Method: (§2) To evaluate the antigen binding activity, the humanized antibodies were subjected to ELISA test. Briefly, microtiter plates were coated with human PD-L1-Fc protein at 0.1 μg/ml in PBS, 100 μl/well at 4° C. overnight, then blocked with 100 μl/well of 5% BSA. Five-fold dilutions of humanized antibodies starting from 10 μg/ml were added to each well and incubated for 1-2 hours at RT. The plates were washed with PBS/Tween and then incubate with […] antibody conjugated with Horse Radish Peroxidase (HRP) for 1 hour at RT. After washing, the plates were developed with TMB substrate and analyzed by spectrophotometer at OD 450-630 nm.

human PD-L1-Fc protein [4] = molecular target: T2, human PD-L1-Fc protein; assay: as above; remark: listed apart in the source
Method: as §2

[5] = molecular target: T3, human PD-L1 (construct not stated) (human, UniProt Q9NZQ7 19-239, limits assumed); assay: BLI Octet Red 96, affinity ranking
T3 construct: also called B7-H1 (PD-L1); PD-L1 protein
Text: To explore the binding kinetics of the humanized antibody, this example performed the affinity ranking by using Octet Red 96.

human PD-L1-Fc protein [6] = molecular target: T2, human PD-L1-Fc protein; assay: ELISA on coated human PD-L1-Fc; EC50 table has no unit, x axis Ab(nM); remark: listed apart in the source
Method: as §2

human PD-L1-Fc protein [7] = molecular target: T2, human PD-L1-Fc protein; assay: as above; remark: listed apart in the source
Method: as §2

[8] = molecular target: T1, human PD-L1 expressed on mammalian cells; assay: FACS receptor blocking on PDL1-CHOK1 cells, competitor Bio-PD1 (30 µg/ml)
Method: To evaluate the blocking effect of humanized antibodies on human PD-L1 expressed on mammalian cells to bind to its receptor PD-1, the FACS-based receptor blocking assay was employed. Briefly, PDL1-CHOK1 cells were firstly incubated with 3-fold serious diluted HL1210-3 mouse mAb starting at 20 μg/ml at RT for 1 hour. After wash by FACS buffer (PBS with 2% FBS), the biotin-labeled huPD-1 were added to each well and incubated at RT for 1 hour. Then, the Streptavidin-PE was added to each well for 0.5 hour post twice wash with FACS buffer. The mean florescence intensity (MFI) of PE was evaluated by FACSAriaIII.

[9] = molecular target: T4, human PD-L1-his taq protein (human, UniProt Q9NZQ7 19-239, limits assumed); assay: SPR Biacore T200, antibody captured, PD-L1-his injected
T4 construct: also called recombinant PD-L1 protein; recombinant human PD-L1; not shown: his tag
Summary of the method: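 HL1210-3 mouse mAb was captured via anti-mouse Fc antibody on a CM5 chip, then serially diluted PD-L1-his was injected for 3 min […]. Dissociation was followed for 900 s.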

[10] = molecular target: T1, human PD-L1 expressed on mammalian cells; assay: flow cytometry (MFI) on PDL1-CHOK1 cells; EC50 table has no unit, x axis Antibodies(nM); remark: listed apart in the source
Method: as §1

human PD-L1-Fc protein [11] = molecular target: T2, human PD-L1-Fc protein; assay: ELISA on coated human PD-L1-Fc; EC50 table has no unit, x axis Ab(nM); remark: listed apart in the source
Method: as §2

[12] = molecular target: T5, recombinant his-tag human LAG3-ECD protein (human, UniProt P18627 23-450); assay: SPR Biacore T200, antibody captured by anti-human Fc, LAG3-ECD-his injected
T5 construct: extracellular domain; not shown: his tag
T5 sequence (looked up): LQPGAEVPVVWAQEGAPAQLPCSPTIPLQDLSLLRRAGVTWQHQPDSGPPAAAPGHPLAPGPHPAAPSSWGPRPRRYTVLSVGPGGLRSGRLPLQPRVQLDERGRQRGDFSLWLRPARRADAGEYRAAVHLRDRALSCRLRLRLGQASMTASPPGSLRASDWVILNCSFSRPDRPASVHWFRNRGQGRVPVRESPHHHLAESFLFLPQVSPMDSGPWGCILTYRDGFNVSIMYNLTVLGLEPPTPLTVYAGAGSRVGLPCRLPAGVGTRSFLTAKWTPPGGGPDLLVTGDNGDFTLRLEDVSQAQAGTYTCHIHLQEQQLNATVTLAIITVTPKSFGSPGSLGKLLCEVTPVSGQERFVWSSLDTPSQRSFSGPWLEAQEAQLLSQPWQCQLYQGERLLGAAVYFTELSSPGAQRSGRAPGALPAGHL
Method: The binding of the S20, S24, S27, S31, S87, S119, S120, S128, S136, S161 and T99 antibodies to recombinant his-tag human LAG3-ECD protein was examined by Biacore T200 using a capture method. Anti-LAG3 antibodies were captured using anti-human Fc antibody. The anti-human Fc antibody was coated on chip. Serial concentrations of his-tag human LAG3-ECD protein (0-4 nM) were injected over capture antibodies at the flow rate of 30 μl/min. The dissociation phase was 900 s or 550 s. The Biacore results for the anti-LAG3 antibodies have shown that these anti-LAG3 antibodies are high affinity binder to human LAG3.

[13] = molecular target: T6, recombinant human LAG-3-ECD-human IgG1 fusion protein (human, UniProt P18627 23-450, biotin-labeled in the MHC class II blocking assays); assay: flow cytometry; blocking of biotin-LAG-3-ECD-huFc binding to MHC class II on Raji cells
T6 construct: extracellular domain; also called LAG-3-huFc; LAG-3-ECD-huFc; not shown: human IgG1 Fc
T6 sequence (looked up): T5 sequence (looked up)
Method: To evaluate the ability of anti-LAG-3 antibodies to block the binding of sLAG-3 to MHC class II receptor, an in vitro binding assay was designed using biotin-labeled LAG-3-ECD-huFc fusion proteins and Raji cells expressing MHC class II receptor. Antibodies from Example 1 were serially diluted from 20 μg/mL with FACS buffer and pre-incubated with 6 μg/mL of biotin-LAG-3-ECD-huFcc for 30 min at room temperature. The antibody mixture was then added to FcR blocked Raji cells and incubated for 30 min on ice. Cells were then washed with FACS buffer and subsequently stained with streptavidin PE for 30 min on ice and subsequently washed once with FACS buffer. Labeled cells were evaluated for fluorescence intensity by flow cytometry in a BD FACSCalibur™.

rat LAG3 ECD-Fc protein = molecular target: T7, rat LAG3 ECD-Fc protein (rat, UniProt Q5BK54 24-442); assay: ELISA on coated rat LAG3 ECD-Fc; EC50 table has no unit, x axis Ab(nM); curve without upper plateau
T7 construct: extracellular domain; not shown: Fc part
T7 sequence (looked up): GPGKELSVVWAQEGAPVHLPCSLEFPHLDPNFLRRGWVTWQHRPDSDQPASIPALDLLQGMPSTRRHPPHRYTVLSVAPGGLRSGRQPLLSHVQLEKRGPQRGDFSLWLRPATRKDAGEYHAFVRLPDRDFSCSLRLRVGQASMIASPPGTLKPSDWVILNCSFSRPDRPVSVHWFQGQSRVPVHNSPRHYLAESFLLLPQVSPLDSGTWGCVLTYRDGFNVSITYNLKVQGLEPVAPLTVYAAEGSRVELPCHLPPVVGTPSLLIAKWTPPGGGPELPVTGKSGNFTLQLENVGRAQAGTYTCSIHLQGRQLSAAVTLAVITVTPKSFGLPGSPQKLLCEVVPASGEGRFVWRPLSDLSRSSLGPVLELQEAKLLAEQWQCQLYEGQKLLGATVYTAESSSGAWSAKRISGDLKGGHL
Method: (§3) To evaluate the capability of the anti-LAG-3 antibodies to bind to human, rat, and mouse LAG3 the antibodies identified in Example 2.1 were evaluated for their binding property through ELISA. The human, rat and mouse LAG3 ECD-Fc protein were coated to ELISA plate at 1 μg/ml with 100 μl/well. Antibodies from Example 1 were serially diluted with ELISA diluent buffer. […] The resulting plates were washed and then labeled with anti-human IgG(Fab)-HRP antibody. The S31 can only bind to human LAG3. The S27 and T99 can bind to human LAG3 and rat/mouse LAG3 with lower potency. The S119 antibody can bind to human, rat and mouse LAG3 at high potency (FIGS. 22A-22D).

[14] = molecular target: T8, mouse LAG3 ECD-Fc protein (mouse, UniProt Q61790 24-442); assay: ELISA on coated mouse LAG3 ECD-Fc; EC50 table has no unit, x axis Ab(nM); curve without upper plateau
T8 construct: extracellular domain; not shown: Fc part
T8 sequence (looked up): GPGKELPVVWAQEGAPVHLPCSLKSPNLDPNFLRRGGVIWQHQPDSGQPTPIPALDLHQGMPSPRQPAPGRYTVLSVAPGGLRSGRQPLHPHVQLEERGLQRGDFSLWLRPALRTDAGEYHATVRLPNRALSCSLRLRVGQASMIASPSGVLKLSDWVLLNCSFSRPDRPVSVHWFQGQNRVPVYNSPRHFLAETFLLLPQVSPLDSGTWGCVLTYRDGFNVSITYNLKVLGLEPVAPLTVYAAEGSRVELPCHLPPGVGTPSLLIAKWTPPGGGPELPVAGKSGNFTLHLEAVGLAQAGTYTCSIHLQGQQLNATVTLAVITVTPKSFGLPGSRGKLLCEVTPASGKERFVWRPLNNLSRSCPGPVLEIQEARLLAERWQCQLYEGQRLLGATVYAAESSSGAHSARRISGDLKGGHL
Method: as §3

[15] = molecular target: T6, recombinant human LAG-3-ECD-human IgG1 …; assay: ELISA on coated human LAG3 ECD-Fc; EC50 table has no unit, x axis Ab(nM)
Method: as §3

[16] = molecular target: T1, human PD-L1 expressed on mammalian cells; assay: cell-based binding on Raji-PDL1 cells (FACS by paragraph 328; the y axis of the sheet is labelled IL2 (ng/ml)); EC50 table has no unit, x axis Concentration (nM)
Method: as §1, with “the” for “the humanized”, “PDL1-Raji” for “PDL1-CHOK1”, “µg/ml” for “μg/ml”, “Alexa” for “alexa”

[17] = molecular target: T3, human PD-L1 (construct not stated); assay: SPR Biacore, affinity ranking

T3 sequence (Q9NZQ7 19-239 limits assumed): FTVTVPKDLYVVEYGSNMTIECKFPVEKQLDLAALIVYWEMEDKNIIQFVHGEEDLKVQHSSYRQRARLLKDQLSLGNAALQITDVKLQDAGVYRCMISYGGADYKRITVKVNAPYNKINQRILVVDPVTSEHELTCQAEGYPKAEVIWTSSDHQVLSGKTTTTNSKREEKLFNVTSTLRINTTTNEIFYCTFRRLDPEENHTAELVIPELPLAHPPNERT
T2 sequence (Q9NZQ7 19-239 limits assumed): as above
T4 sequence (Q9NZQ7 19-239 limits assumed): as above
T1 sequence (Q9NZQ7 19-290): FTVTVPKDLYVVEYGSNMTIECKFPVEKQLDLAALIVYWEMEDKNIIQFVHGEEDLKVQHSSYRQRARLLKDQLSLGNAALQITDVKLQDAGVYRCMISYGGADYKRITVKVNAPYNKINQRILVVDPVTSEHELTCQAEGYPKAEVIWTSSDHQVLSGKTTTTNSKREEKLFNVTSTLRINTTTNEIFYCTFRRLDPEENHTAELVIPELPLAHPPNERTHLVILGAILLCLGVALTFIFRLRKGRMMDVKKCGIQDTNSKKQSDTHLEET

EC50 [1]: 0.95 nM
EC50 [2]: 0.95 nM
EC50 (human PD-L1-Fc protein [3]): 0.169 nM
EC50 (human PD-L1-Fc protein [4]): 0.16 nM
Kd [5]: 1.07 nM
koff [5]: 0.000173 s⁻¹
kon [5]: 162000 M⁻¹ s⁻¹
EC50 (human PD-L1-Fc protein [6]): 0.139 nM
EC50 (human PD-L1-Fc protein [7]): 0.17 nM
TOP [8]: 87.2
Kd [9]: 0.264 nM
koff [9]: 3.27e-05 s⁻¹
kon [9]: 124000 M⁻¹ s⁻¹
EC50 [10]: 0.95 nM
EC50 (human PD-L1-Fc protein [11]): 0.177 nM
B1: H1210 chimera (antibody, V domains shown)
VH: EVKLVESGGDLVKPGGSLKLSCAASGFTFSSYDMSWVRQTPEKSLEWVATISDGGGYIYYSDSVKGRFTISRDNAKNNLYLQMSSLRSEDTALYICAREFGKRYALDYWGQGTSVTVSS
VL: DIVMTQSHKFMSTSVGDRVSISCKASQDVTPAVAWYQQKPGQSPKLLIYSTSSRYTGVPDRFTGSGSGTDFTFTISSVQAEDLAVYYCQQHYTTPLTFGAGTKLELK
notes: also called chimeric antibody

Kd [12]: 0.0156 nM
koff [12]: 0.00011 s⁻¹
kon [12]: 7.04e+06 M⁻¹ s⁻¹
IC50 [13]: 29.8 nM
EC50 (rat LAG3 ECD-Fc protein): 13.9 nM
EC50 [14]: 12.6 nM
EC50 [15]: 0.21 nM
B2: NLAG3-HDB169-S27 (antibody, human IgG1, V domains shown)
VH: QVQLVQSGAEVKKPGSSVKVSCKASGGTFSSYAISWVRQAPGQGLEWMGGIIPIFGTANYAQKFQGRVTITADESTSTAYMELSSLRSEDTAVYYCTTAAPGSYYLVFHYWGQGTLVTVSS
VL: DIQLTQSPSSLSASVGDRVTITCRASQTISSHLNWYQQKPGKAPKVLIYAASSLQSGVPSRFSGSGSGTEFTLTISSLQPDDFATYYCQQGNSFPFTFGPGTKVEIKR
notes: Short label tied by its unique suffix

EC50 [16]: 5.04 nM
Kd [17]: 2.63 nM
koff [17]: 0.000464 s⁻¹
kon [17]: 177000 M⁻¹ s⁻¹
B3: WT (parental clone of the Hu1210-41 engineering) (antibody, V domains shown)
VH: EVQLVESGGGLVQPGGSLRLSCAASGFTFSSYDMSWVRQAPGKSLEWVATISDAGGYIYYRDSVKGRFTISRDNAKNSLYLQMNSLRDEDTAVYICAREFGKRYALDYWGQGTTVTVSS
VL: DIQMTQSPSSLSASVGDRVTITCKASQDVTPAVAWYQQKPGKAPKLLIYSTSSRYTGVPSRFSGSGSGTDFTFTISSLQPEDIATYYCQQHYTTPLTFGQGTKLEIK
notes: Differs from Hu1210-41 by S60R (Kabat) in the heavy chain; also called parental antibody WT; parent antibody WT
